From patent publication US20160369268

What was measured:
Assay in all cases: cell_activity
[1] = tested on: TALETRE#3-KRAB (synthetic (Xanthomonas TALE)); conditions: 50 ng, against TALETRE#4-VP16-induced AmCyan
[2] = tested on: TALETRE#4-KRAB (synthetic (Xanthomonas TALE)); conditions: 50 ng, against TALETRE#4-VP16-induced AmCyan
[3] = tested on: TALECMV-KRAB (synthetic (Xanthomonas TALE)); conditions: 100 ng, CMV-mKate-PEST in HEK293; only 19% on TRE/CMVmin AmCyan at 50 ng

## CCCTATCAGTGAT (double strand) [TRE target of TALETRE#3]
[1]
  activity: 84 % repression

## ATCAGTGATAGAGAAC (double strand) [TRE target of TALETRE#4]
[2]
  activity: 80 % repression

## CTATATAAGCAGAGCT (double strand) [CMV TATA box region target]
[3]
  activity: 93 % repression
